Data as given in PMC10786891, “Massively parallel profiling of RNA-targeting CRISPR-Cas13d”.

T1: EsCas13d, nuclease-dead (Eubacterium siraeum, UniProt B0MS50, R295A;H300A;R849A;H854A)
T1 sequence: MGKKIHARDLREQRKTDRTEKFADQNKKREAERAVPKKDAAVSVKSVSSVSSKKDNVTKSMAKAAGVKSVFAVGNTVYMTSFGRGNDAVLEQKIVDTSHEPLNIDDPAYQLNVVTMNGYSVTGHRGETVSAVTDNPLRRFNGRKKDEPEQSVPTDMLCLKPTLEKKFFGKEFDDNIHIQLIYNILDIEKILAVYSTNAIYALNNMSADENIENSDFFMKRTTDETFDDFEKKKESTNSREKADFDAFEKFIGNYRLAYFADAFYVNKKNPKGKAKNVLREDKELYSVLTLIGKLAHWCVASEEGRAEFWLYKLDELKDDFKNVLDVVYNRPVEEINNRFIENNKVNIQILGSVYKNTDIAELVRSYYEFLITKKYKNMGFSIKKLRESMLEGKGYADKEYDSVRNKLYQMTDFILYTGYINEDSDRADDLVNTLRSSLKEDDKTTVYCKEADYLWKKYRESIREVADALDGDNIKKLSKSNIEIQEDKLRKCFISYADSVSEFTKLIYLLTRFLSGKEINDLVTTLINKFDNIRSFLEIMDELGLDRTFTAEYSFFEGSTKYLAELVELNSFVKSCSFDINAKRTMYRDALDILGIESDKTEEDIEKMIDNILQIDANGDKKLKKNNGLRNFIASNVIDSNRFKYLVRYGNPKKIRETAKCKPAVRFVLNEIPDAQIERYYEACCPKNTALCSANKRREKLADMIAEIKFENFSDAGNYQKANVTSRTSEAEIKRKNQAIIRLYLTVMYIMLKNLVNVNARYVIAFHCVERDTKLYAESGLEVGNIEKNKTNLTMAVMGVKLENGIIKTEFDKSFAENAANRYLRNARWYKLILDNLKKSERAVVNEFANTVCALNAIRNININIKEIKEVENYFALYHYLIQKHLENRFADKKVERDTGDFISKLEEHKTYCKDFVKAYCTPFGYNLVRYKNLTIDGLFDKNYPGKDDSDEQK

B1: target 3 insA 3' of 7,insC 3' of 7 (mixed)
RNA 1: CACCCGUGCAAAAUUGCAGGGGUCUAAAACGACCUGAAUAUUUCAGAUCAAA
RNA 2: GGGAAUGGAUCCACAUCUACGAAUUCGUUUUUGAUCUGAAAUAUUACCAGGUCUGCAGAUCGGAAGAGCACACGU
B2: target 3 insC 3' of 9,insG 3' of 6 (mixed)
RNA 1: CACCCGUGCAAAAUUGCAGGGGUCUAAAACGACCUGAAUAUUUCAGAUCAAA
RNA 2: GGGAAUGGAUCCACAUCUACGAAUUCGUUUUUGAUCUGAAAUACUUCGAGGUCUGCAGAUCGGAAGAGCACACGU
B3: target 3 insC 3' of 19,insU 3' of 5 (mixed)
RNA 1: CACCCGUGCAAAAUUGCAGGGGUCUAAAACGACCUGAAUAUUUCAGAUCAAA
RNA 2: GGGAAUGGAUCCACAUCUACGAAUUCGUUUUUGCAUCUGAAAUAUUCAUGGUCUGCAGAUCGGAAGAGCACACGU
B4: target 3 insU 3' of 22,insG 3' of 6 (mixed)
RNA 1: CACCCGUGCAAAAUUGCAGGGGUCUAAAACGACCUGAAUAUUUCAGAUCAAA
RNA 2: GGGAAUGGAUCCACAUCUACGAAUUCGUUUUUUGAUCUGAAAUAUUCGAGGUCUGCAGAUCGGAAGAGCACACGU
B5: target 3 insU 3' of 14,insA 3' of 3 (mixed)
RNA 1: CACCCGUGCAAAAUUGCAGGGGUCUAAAACGACCUGAAUAUUUCAGAUCAAA
RNA 2: GGGAAUGGAUCCACAUCUACGAAUUCGUUUUUGAUCUGUAAAUAUUCAGGAUCUGCAGAUCGGAAGAGCACACGU
B6: target 3 C6A (mixed)
RNA 1: CACCCGUGCAAAAUUGCAGGGGUCUAAAACGACCUGAAUAUUUCAGAUCAAA
RNA 2: GGGAAUGGAUCCACAUCUACGAAUUCGUUUUUGAUCUGAAAUAUUAAGGUCUGCAGAUCGGAAGAGCACACGU
B7: target 3 U2G,A12G (mixed)
RNA 1: CACCCGUGCAAAAUUGCAGGGGUCUAAAACGACCUGAAUAUUUCAGAUCAAA
RNA 2: GGGAAUGGAUCCACAUCUACGAAUUCGUUUUUGAUCUGAGAUAUUCAGGGCUGCAGAUCGGAAGAGCACACGU
B8: target 3 C1G,U22A (mixed)
RNA 1: CACCCGUGCAAAAUUGCAGGGGUCUAAAACGACCUGAAUAUUUCAGAUCAAA
RNA 2: GGGAAUGGAUCCACAUCUACGAAUUCGUUAUUGAUCUGAAAUAUUCAGGUGUGCAGAUCGGAAGAGCACACGU
B9: target 3 U2G,U21C (mixed)
RNA 1: CACCCGUGCAAAAUUGCAGGGGUCUAAAACGACCUGAAUAUUUCAGAUCAAA
RNA 2: GGGAAUGGAUCCACAUCUACGAAUUCGUUUCUGAUCUGAAAUAUUCAGGGCUGCAGAUCGGAAGAGCACACGU
B10: target 3 A12G,U22C (mixed)
RNA 1: CACCCGUGCAAAAUUGCAGGGGUCUAAAACGACCUGAAUAUUUCAGAUCAAA
RNA 2: GGGAAUGGAUCCACAUCUACGAAUUCGUUCUUGAUCUGAGAUAUUCAGGUCUGCAGAUCGGAAGAGCACACGU
B11: target 3 insU 3' of 14,insU 3' of 5 (mixed)
RNA 1: CACCCGUGCAAAAUUGCAGGGGUCUAAAACGACCUGAAUAUUUCAGAUCAAA
RNA 2: GGGAAUGGAUCCACAUCUACGAAUUCGUUUUUGAUCUGUAAAUAUUCAUGGUCUGCAGAUCGGAAGAGCACACGU
B12: target 3 insA 3' of 7,insA 3' of 2 (mixed)
RNA 1: CACCCGUGCAAAAUUGCAGGGGUCUAAAACGACCUGAAUAUUUCAGAUCAAA
RNA 2: GGGAAUGGAUCCACAUCUACGAAUUCGUUUUUGAUCUGAAAUAUUACAGGUACUGCAGAUCGGAAGAGCACACGU
B13: target 3 insA 3' of 8,insG 3' of 5 (mixed)
RNA 1: CACCCGUGCAAAAUUGCAGGGGUCUAAAACGACCUGAAUAUUUCAGAUCAAA
RNA 2: GGGAAUGGAUCCACAUCUACGAAUUCGUUUUUGAUCUGAAAUAUAUCAGGGUCUGCAGAUCGGAAGAGCACACGU
B14: target 3 insC 3' of 8,insC 3' of 7 (mixed)
RNA 1: CACCCGUGCAAAAUUGCAGGGGUCUAAAACGACCUGAAUAUUUCAGAUCAAA
RNA 2: GGGAAUGGAUCCACAUCUACGAAUUCGUUUUUGAUCUGAAAUAUCUCCAGGUCUGCAGAUCGGAAGAGCACACGU
B15: target 3 insC 3' of 7,insA 3' of 4 (mixed)
RNA 1: CACCCGUGCAAAAUUGCAGGGGUCUAAAACGACCUGAAUAUUUCAGAUCAAA
RNA 2: GGGAAUGGAUCCACAUCUACGAAUUCGUUUUUGAUCUGAAAUAUUCCAGAGUCUGCAGAUCGGAAGAGCACACGU
B16: target 3 insA 3' of 14 (mixed)
RNA 1: CACCCGUGCAAAAUUGCAGGGGUCUAAAACGACCUGAAUAUUUCAGAUCAAA
RNA 2: GGGAAUGGAUCCACAUCUACGAAUUCGUUUUUGAUCUGAAAAUAUUCAGGUCUGCAGAUCGGAAGAGCACACGU
B17: target 3 A5G,U7G (mixed)
RNA 1: CACCCGUGCAAAAUUGCAGGGGUCUAAAACGACCUGAAUAUUUCAGAUCAAA
RNA 2: GGGAAUGGAUCCACAUCUACGAAUUCGUUUUUGAUCUGAAAUAUGCGGGUCUGCAGAUCGGAAGAGCACACGU
B18: target 3 C1G,U8G (mixed)
RNA 1: CACCCGUGCAAAAUUGCAGGGGUCUAAAACGACCUGAAUAUUUCAGAUCAAA
RNA 2: GGGAAUGGAUCCACAUCUACGAAUUCGUUUUUGAUCUGAAAUAGUCAGGUGUGCAGAUCGGAAGAGCACACGU
B19: target 3 C1U,U22A (mixed)
RNA 1: CACCCGUGCAAAAUUGCAGGGGUCUAAAACGACCUGAAUAUUUCAGAUCAAA
RNA 2: GGGAAUGGAUCCACAUCUACGAAUUCGUUAUUGAUCUGAAAUAUUCAGGUUUGCAGAUCGGAAGAGCACACGU
B20: target 3 C1G,C6A (mixed)
RNA 1: CACCCGUGCAAAAUUGCAGGGGUCUAAAACGACCUGAAUAUUUCAGAUCAAA
RNA 2: GGGAAUGGAUCCACAUCUACGAAUUCGUUUUUGAUCUGAAAUAUUAAGGUGUGCAGAUCGGAAGAGCACACGU
B21: target 3 U2A,G3A (mixed)
RNA 1: CACCCGUGCAAAAUUGCAGGGGUCUAAAACGACCUGAAUAUUUCAGAUCAAA
RNA 2: GGGAAUGGAUCCACAUCUACGAAUUCGUUUUUGAUCUGAAAUAUUCAGAACUGCAGAUCGGAAGAGCACACGU
B22: target 3 U8G (mixed)
RNA 1: CACCCGUGCAAAAUUGCAGGGGUCUAAAACGACCUGAAUAUUUCAGAUCAAA
RNA 2: GGGAAUGGAUCCACAUCUACGAAUUCGUUUUUGAUCUGAAAUAGUCAGGUCUGCAGAUCGGAAGAGCACACGU
B23: target 3 U22A (mixed)
RNA 1: CACCCGUGCAAAAUUGCAGGGGUCUAAAACGACCUGAAUAUUUCAGAUCAAA
RNA 2: GGGAAUGGAUCCACAUCUACGAAUUCGUUAUUGAUCUGAAAUAUUCAGGUCUGCAGAUCGGAAGAGCACACGU
B24: target 3 C1A,U22A (mixed)
RNA 1: CACCCGUGCAAAAUUGCAGGGGUCUAAAACGACCUGAAUAUUUCAGAUCAAA
RNA 2: GGGAAUGGAUCCACAUCUACGAAUUCGUUAUUGAUCUGAAAUAUUCAGGUAUGCAGAUCGGAAGAGCACACGU
B25: target 3 insG 3' of 7 (mixed)
RNA 1: CACCCGUGCAAAAUUGCAGGGGUCUAAAACGACCUGAAUAUUUCAGAUCAAA
RNA 2: GGGAAUGGAUCCACAUCUACGAAUUCGUUUUUGAUCUGAAAUAUUGCAGGUCUGCAGAUCGGAAGAGCACACGU
B26: target 1 A9G,A18U (mixed)
RNA 1: CACCCGUGCAAAAAUGCAGGGGUCUAAAACUGAGCGGAUAACCUCUCUAUGG
RNA 2: GGGAAUGGAUCCACAUCUACGAAUUCGUACCAUUGAGAGGUUGUCCGCUCACCGAGAUCGGAAGAGCACACGU
B27: target 1 U10G,A18U (mixed)
RNA 1: CACCCGUGCAAAAAUGCAGGGGUCUAAAACUGAGCGGAUAACCUCUCUAUGG
RNA 2: GGGAAUGGAUCCACAUCUACGAAUUCGUACCAUUGAGAGGUGAUCCGCUCACCGAGAUCGGAAGAGCACACGU
B28: target 1 insU 3' of 14,insC 3' of 5 (mixed)
RNA 1: CACCCGUGCAAAAAUGCAGGGGUCUAAAACUGAGCGGAUAACCUCUCUAUGG
RNA 2: GGGAAUGGAUCCACAUCUACGAAUUCGUACCAUAGAGAUGGUUAUCCGCCUCACCGAGAUCGGAAGAGCACACGU

Each binder was assayed against T1, EsCas13d, nuclease-dead (assay: crRNA (strand 1, pre-loaded); Mg2+; 40 mM Tris-HCl pH 7.5, 150 mM NaCl, 6 mM MgCl2, 1 mM DTT, 0.1% Tween-20, 0.2 mg/ml BSA; 25 C; 10 min per concentration, then washed). Details: tags: His6-TwinStrep-SUMO cleaved; N-terminal SNAP kept (SNAP-Surface 488); label: 3' end held by stalled T7 RNA polymerase.

Binder | Kd [nM]
B1 | 48 ± 5.5
B2 | 89 ± 23.5
B3 | 130 ± 40
B4 | 7.7 ± 0.65
B5 | ~100
B6 | 36.2 ± 4.1
B7 | 33.5 ± 6
B8 | 25.1 ± 5.2
B9 | 60 ± 24.5
B10 | 40.5 ± 8.5
B11 | 83.5 ± 33.5
B12 | 51 ± 8
B13 | 68 ± 15
B14 | 77.5 ± 16
B15 | 97 ± 35
B16 | 60 ± 12
B17 | 44 ± 6
B18 | 35 ± 6
B19 | 25.9 ± 5.5
B20 | 30.5 ± 5
B21 | 38.5 ± 4
B22 | 45 ± 6
B23 | 14.8 ± 1.45
B24 | 13.6 ± 1.9
B25 | 65.5 ± 13.5
B26 | 39.7 ± 3.1
B27 | 57 ± 9
B28 | ~60
